In test [1] the target is SNAP complex (SNAPc) immobilized on Strep-Tactin beads, Q5SXM2;Q92966;Q13487;Q16533;O75971. Kind of test: pull-down on immobilized SNAPc, immunoblot quantification. Particulars: chain shown with the change. Background: In western blotting, separated proteins are transferred to a membrane and probed.
For test [2], the target named is SNAP complex (SNAPc), Q5SXM2;Q92966;Q13487;Q16533;O75971. Briefly: Flag-bead pull-down, immunoblot quantification. As to conditions: chain shown with the change.

The values below come from article PMC6004067.

B1: TFIIB, full-length human, Flag- and His-tagged, Q00403 V245A; P246A; G247A; R248A; S249A (protein)
chain: MASTSRLDALPRVTCPNHPDAILVEDYRAGDMICPECGLVVGDRVIDVGSEWRTFSNDKATKDPSRVGDSQNPLLSDGDLSTMIGKGTGAASFDEFGNSKYQNRRTMSSSDRAMMNAFKEITTMADRINLPRNIVDRTNNLFKQVYEQKSLKGRANDAIASACLYIACRQEGVPRTFKEICAVSRISKKEIGRCFKLILKALETSVDLITTGDFMSRFCSNLCLPKQVQMAATHIARKAVELDLAAAAAPISVAAAAIYMASQASAEKRTQKEIGDIAGVADVTIRQSYRLIYPRAPDLFPTDFKFDTPVDKLPQL
Consider B1, for which, in test [1], the ratio to parent stood at 0.57.

B2: TFIIB, full-length human, Flag- and His-tagged, Q00403 R169E; K188E (protein)
chain: MASTSRLDALPRVTCPNHPDAILVEDYRAGDMICPECGLVVGDRVIDVGSEWRTFSNDKATKDPSRVGDSQNPLLSDGDLSTMIGKGTGAASFDEFGNSKYQNRRTMSSSDRAMMNAFKEITTMADRINLPRNIVDRTNNLFKQVYEQKSLKGRANDAIASACLYIACEQEGVPRTFKEICAVSRISEKEIGRCFKLILKALETSVDLITTGDFMSRFCSNLCLPKQVQMAATHIARKAVELDLVPGRSPISVAAAAIYMASQASAEKRTQKEIGDIAGVADVTIRQSYRLIYPRAPDLFPTDFKFDTPVDKLPQL
With B2, the ratio to parent in test [2] was found to be 0.13.

B3: TFIIB, full-length human, Flag- and His-tagged, Q00403 S205A; V206A; D207A; L208A; I209A (protein)
chain: MASTSRLDALPRVTCPNHPDAILVEDYRAGDMICPECGLVVGDRVIDVGSEWRTFSNDKATKDPSRVGDSQNPLLSDGDLSTMIGKGTGAASFDEFGNSKYQNRRTMSSSDRAMMNAFKEITTMADRINLPRNIVDRTNNLFKQVYEQKSLKGRANDAIASACLYIACRQEGVPRTFKEICAVSRISKKEIGRCFKLILKALETAAAAATTGDFMSRFCSNLCLPKQVQMAATHIARKAVELDLVPGRSPISVAAAAIYMASQASAEKRTQKEIGDIAGVADVTIRQSYRLIYPRAPDLFPTDFKFDTPVDKLPQL
B3: in test [1], the ratio to parent was found to be 0.54.

B4: TFIIB, full-length human, Flag- and His-tagged, Q00403 R185A; K188A; K189A (protein)
chain: MASTSRLDALPRVTCPNHPDAILVEDYRAGDMICPECGLVVGDRVIDVGSEWRTFSNDKATKDPSRVGDSQNPLLSDGDLSTMIGKGTGAASFDEFGNSKYQNRRTMSSSDRAMMNAFKEITTMADRINLPRNIVDRTNNLFKQVYEQKSLKGRANDAIASACLYIACRQEGVPRTFKEICAVSAISAAEIGRCFKLILKALETSVDLITTGDFMSRFCSNLCLPKQVQMAATHIARKAVELDLVPGRSPISVAAAAIYMASQASAEKRTQKEIGDIAGVADVTIRQSYRLIYPRAPDLFPTDFKFDTPVDKLPQL
With B4, the ratio to parent in test [1] worked out at 0.04.

B5: TFIIB, full-length human, Flag- and His-tagged, Q00403 R169E (protein)
chain: MASTSRLDALPRVTCPNHPDAILVEDYRAGDMICPECGLVVGDRVIDVGSEWRTFSNDKATKDPSRVGDSQNPLLSDGDLSTMIGKGTGAASFDEFGNSKYQNRRTMSSSDRAMMNAFKEITTMADRINLPRNIVDRTNNLFKQVYEQKSLKGRANDAIASACLYIACEQEGVPRTFKEICAVSRISKKEIGRCFKLILKALETSVDLITTGDFMSRFCSNLCLPKQVQMAATHIARKAVELDLVPGRSPISVAAAAIYMASQASAEKRTQKEIGDIAGVADVTIRQSYRLIYPRAPDLFPTDFKFDTPVDKLPQL
Turning to B5, the ratio to parent in test [2] came to 0.32.
